Results as given in paper PMC6056640, “Ghrelin Through GHSR1a and OX1R Heterodimers Reveals a Gαs–cAMP-cAMP Response Element Binding Protein Signaling Pathway in Vitro” (Frontiers in Molecular Neuroscience, 2018).

Biological target: T1, OX1R-Rluc (human, UniProt O43613 1-425)
T1 construct: Orexin type 1 receptor (OX1R), human cDNA (pcDNA3.1-OX1R, cDNA Resource Centre); construct made 'as described'; BRET donor; also called orexin type 1 receptor; Orexin 1 receptor; source: HEK293, transiently transfected, in living cells; not shown: Rluc, C-terminal, kept
T1 sequence (looked up): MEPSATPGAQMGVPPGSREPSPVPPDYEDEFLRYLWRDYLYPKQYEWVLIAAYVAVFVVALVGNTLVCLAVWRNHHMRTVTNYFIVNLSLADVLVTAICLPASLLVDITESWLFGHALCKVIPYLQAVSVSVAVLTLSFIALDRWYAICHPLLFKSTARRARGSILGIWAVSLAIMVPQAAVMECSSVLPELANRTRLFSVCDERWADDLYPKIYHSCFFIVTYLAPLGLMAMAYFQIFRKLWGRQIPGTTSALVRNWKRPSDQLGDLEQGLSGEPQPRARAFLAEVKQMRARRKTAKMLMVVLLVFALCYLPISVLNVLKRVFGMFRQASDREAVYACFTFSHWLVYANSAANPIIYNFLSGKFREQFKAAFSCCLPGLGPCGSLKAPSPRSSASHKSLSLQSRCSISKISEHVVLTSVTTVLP
Experiment: FRET or BRET; BRET in living HEK293 cells; donor (Rluc fusion) and acceptor (EYFP fusion) plasmids 1:3; coelenterazine h 5 μM; also after ghrelin (100 nM) and/or orexin-A (100 nM) or vehicle for 10 min
Settings: partners not purified

B1: GHSR1a-EYFP (receptor, UniProt Q92847 1-366, looked up)
chain: MWNATPSEEPGFNLTLADLDWDASPGNDSLGDELLQLFPAPLLAGVTATCVALFVVGIAGNLLTMLVVSRFRELRTTTNLYLSSMAFSDLLIFLCMPLDLVRLWQYRPWNFGDLLCKLFQFVSESCTYATVLTITALSVERYFAICFPLRAKVVVTKGRVKLVIFVIWAVAFCSAGPIFVLVGVEHENGTDPWDTNECRPTEFAVRSGLLTVMVWVSSIFFFLPVFCLTVLYSLIGRKLWRRRRGDAVVGASLRDQNHKQTVKMLAVVVFAFILCWLPFHVGRYLFSKSFEPGSLEIAQISQYCNLVSFVLFYLSAAINPILYNIMSKKYRVAVFRLLGFEPFSQRKLSTLKDESSRAWTESSINT
notes: Growth hormone secretagogue receptor 1α (GHSR1a); ORF inserted into the EYFP-N1 vector; cDNA from pcDNA3.1-GHSR1a (cDNA Resource Centre); BRET and FRET acceptor; The FRET methods call it EYFP-GHSR1a, but the construction paragraph puts EYFP on the C-terminus; also called growth hormone secretagogue receptor 1α; EYFP-GHSR1a; source: HEK293, transiently transfected, in living cells; not shown: …
With B1 the mBRET ratio was 190.
